Source: publication PMC9658990

Experiments:
[1] = target: T1, HMW-uPA (high molecular weight urokinase), biotinylated for FLAA (human, UniProt P00749;P00749 21-177;179-431); experiment: FLAA (OliGreen); BPs-T: 50 mM Bis-Tris/HCl pH 6.5, 110 mM NaCl, 5 mM MgCl2, 1 mM CaCl2, 1 mM KCl (printed KCl2), 0.05% Tween 20, 23 °C
[2] = target: T1, HMW-uPA (high molecular weight …); experiment: as above; remark: listed apart in the source

Binder | binding signal [1] | binding result [2]
TAAGCGGGGGTGAGAGATCTGTCAGTACGAGCTGGGTTTGCG (ssDNA) [Ex-S1] | 36 % signal reduction vs uPAapt-02-FR | 
CAAGCGGGGGTTAGAGATCTGTCAGTACGAGCTGGGTTTGCG (ssDNA) [Ex-S12] |  | binds
CAAGCGGGGGTGAGAGATCTGTCCGTACGAGCTGGGTTTGCG (ssDNA) [Ex-S24] | 98 % signal reduction vs uPAapt-02-FR | 
CAAGCGGGGGTGAGATATCTGTCAGTACGAGCTGGGTTTGCG (ssDNA) [Ex-S16] | 72 % signal reduction vs uPAapt-02-FR | 
CAAGCTGGGGTGAGAGATCTGTCAGTACGAGCTGGGTTTGCG (ssDNA) [Ex-S6] | 50 % signal reduction vs uPAapt-02-FR | 
CAAGCGGGGGTGAGAGATCTGTCAGTACGAGCTTGGTTTGCG (ssDNA) [Ex-S34] | 0 % signal reduction vs uPAapt-02-FR | 
CAAGCGGGGGTGAGAGATCTGTCAGTACGAGTTGGGTTTGCG (ssDNA) [Ex-S32] | 63 % signal reduction vs uPAapt-02-FR | 
CAAGCGTGGGTGAGAGATCTGTCAGTACGAGCTGGGTTTGCG (ssDNA) [Ex-S7] | 34 % signal reduction vs uPAapt-02-FR | 
CAAGCGGGGGTGAGAGATCTGTCAGTACGCGCTGGGTTTGCG (ssDNA) [Ex-S30] | 89 % signal reduction vs uPAapt-02-FR | 
CAAGCGGGGGTGAGAGATCTGTCAGTACGAGCTGTGTTTGCG (ssDNA) [Ex-S35] | 27 % signal reduction vs uPAapt-02-FR | 
CAAGCGGGGGTGAGAGATTTGTCAGTACGAGCTGGGTTTGCG (ssDNA) [Ex-S19] | 0 % signal reduction vs uPAapt-02-FR | 
CAAGTGGGGGTGAGAGATCTGTCAGTACGAGCTGGGTTTGCG (ssDNA) [Ex-S5] | 56 % signal reduction vs uPAapt-02-FR | 
CAAGCGGGGGTGAGAGATCTGTCAGTACGAGCCGGGTTTGCG (ssDNA) [Ex-S33] | 82 % signal reduction vs uPAapt-02-FR | 
CAAGCGGGGGTGAGAGATCTGTCATTACGAGCTGGGTTTGCG (ssDNA) [Ex-S25] | 99 % signal reduction vs uPAapt-02-FR | 
CAAGCGGTGGTGAGAGATCTGTCAGTACGAGCTGGGTTTGCG (ssDNA) [Ex-S8] | 94 % signal reduction vs uPAapt-02-FR | 
CAAGCGGGGGTGAGAGATCTGTCAGTACGAGCTGGTTTTGCG (ssDNA) [Ex-S36] | 11 % signal reduction vs uPAapt-02-FR | 
CAAGCGGGGGTGAGAGATCTGTCAGTACGAGCTGGGTTCGCG (ssDNA) [Ex-S39] | 65 % signal reduction vs uPAapt-02-FR | 
CAAGCGGGGGTGAGAGATCCGTCAGTACGAGCTGGGTTTGCG (ssDNA) [Ex-S20] | 95 % signal reduction vs uPAapt-02-FR | 
CAAGCGGGGGTGAGAGATCTGTCAGCACGAGCTGGGTTTGCG (ssDNA) [Ex-S26] | 89 % signal reduction vs uPAapt-02-FR | 
CAAGCGGGGGTGAGCGATCTGTCAGTACGAGCTGGGTTTGCG (ssDNA) [Ex-S15] | 89 % signal reduction vs uPAapt-02-FR | 
CAAGCGGGGGTGAGAGATCTGTCAGTACGAGCTGGGTTTGTG (ssDNA) [Ex-S41] | 3 % signal reduction vs uPAapt-02-FR | 

Binder | binding signal [1] | binding result [2]
CAAGCGGGGGTGAGAGATCTGTCAGTACGATCTGGGTTTGCG (ssDNA) [Ex-S31] | 100 % signal reduction vs uPAapt-02-FR | 
CAATCGGGGGTGAGAGATCTGTCAGTACGAGCTGGGTTTGCG (ssDNA) [Ex-S4] | 85 % signal reduction vs uPAapt-02-FR | 
CAAGCGGGGGTGAGAGATCTGTCAGTATGAGCTGGGTTTGCG (ssDNA) [Ex-S28] | 95 % signal reduction vs uPAapt-02-FR | 
CCAGCGGGGGTGAGAGATCTGTCAGTACGAGCTGGGTTTGCG (ssDNA) [Ex-S2] |  | binds
CAAGCGGGGGCGAGAGATCTGTCAGTACGAGCTGGGTTTGCG (ssDNA) [Ex-S11] | 91 % signal reduction vs uPAapt-02-FR | 
CAAGCGGGGGTGAGAGATCTGTCAGTACGAGCTGGGTTTTCG (ssDNA) [Ex-S40] | 3 % signal reduction vs uPAapt-02-FR | 
CACGCGGGGGTGAGAGATCTGTCAGTACGAGCTGGGTTTGCG (ssDNA) [Ex-S3] | 18 % signal reduction vs uPAapt-02-FR | 
CAAGCGGGGGTGATAGATCTGTCAGTACGAGCTGGGTTTGCG (ssDNA) [Ex-S14] | 91 % signal reduction vs uPAapt-02-FR | 
CAAGCGGGGGTGAGAGATCTGTCAGTCCGAGCTGGGTTTGCG (ssDNA) [Ex-S27] | 100 % signal reduction vs uPAapt-02-FR | 
CAAGCGGGGGTGAGAGACCTGTCAGTACGAGCTGGGTTTGCG (ssDNA) [Ex-S18] | 94 % signal reduction vs uPAapt-02-FR | 
CAAGCGGGTGTGAGAGATCTGTCAGTACGAGCTGGGTTTGCG (ssDNA) [Ex-S9] | 65 % signal reduction vs uPAapt-02-FR | 
CAAGCGGGGGTGAGAGATCTGTCAGTACGAGCTGGGTTTGCT (ssDNA) [Ex-S42] | 17 % signal reduction vs uPAapt-02-FR | 
CAAGCGGGGGTGAGAGATCTGTCAGTACTAGCTGGGTTTGCG (ssDNA) [Ex-S29] | 47 % signal reduction vs uPAapt-02-FR | 
CAAGCGGGGGTGAGAGATCTGTTAGTACGAGCTGGGTTTGCG (ssDNA) [Ex-S23] | 13 % signal reduction vs uPAapt-02-FR | 
CAAGCGGGGGTGCGAGATCTGTCAGTACGAGCTGGGTTTGCG (ssDNA) [Ex-S13] | 97 % signal reduction vs uPAapt-02-FR | 
CAAGCGGGGGTGAGAGATCTGTCAGTACGAGCTGGGTCTGCG (ssDNA) [Ex-S38] | 53 % signal reduction vs uPAapt-02-FR | 
CAAGCGGGGGTGAGAGATCTGCCAGTACGAGCTGGGTTTGCG (ssDNA) [Ex-S22] | 99 % signal reduction vs uPAapt-02-FR | 
CAAGCGGGGGTGAGAGATCTGTCAGTACGAGCTGGGCTTGCG (ssDNA) [Ex-S37] |  | binds
CAAGCGGGGTTGAGAGATCTGTCAGTACGAGCTGGGTTTGCG (ssDNA) [Ex-S10] | 78 % signal reduction vs uPAapt-02-FR | 
CAAGCGGGGGTGAGAGATCTTTCAGTACGAGCTGGGTTTGCG (ssDNA) [Ex-S21] | 92 % signal reduction vs uPAapt-02-FR | 
CAAGCGGGGGTGAGAGCTCTGTCAGTACGAGCTGGGTTTGCG (ssDNA) [Ex-S17] | 16 % signal reduction vs uPAapt-02-FR | 
